Laboratory results taken from paper doi:10.1101/2023.03.09.531850.

Target: EcbAgaN (Escherichia coli long-B pAgo-associated nuclease) (Escherichia coli)
Experiment: SEC-MALS

stoichiometry N: 2
Substance: EcbAgaN (Escherichia coli long-B pAgo-associated nuclease) (enzyme)
